Laboratory results reported in patent US20240002860, “SARS-CoV-2 SPIKE GLYCOPROTEIN-BINDING NUCLEIC ACID MOLECULE, SARS-CoV-2 DETECTION SENSOR, SARS-CoV-2 DETECTION REAGENT, SARS-CoV-2 DETECTION METHOD, AND SARS-CoV-2 VIRUS DEACTIVATOR” (NEC Solution Innovators, Ltd., published 2024).
Residue numbers refer to the chain shown, from its start.

B1: Binding nucleic acid molecule 1 (ssDNA)
DNA: GGTATGTCTCCGCCACTGAAATCCGTGCCTAATCTCACCCCACGGAATTCATGGCAAAGCCGAGGTGTCTTGTATTCAAAAAAAAAAAAAAAAAAAA
modifications: NG7 (modified thymine, formula 1) at underlined T, i.e. T residues 3' of the first 23 nt (underlining of some T differs between printings); 3' poly(dA)20 tail unmodified
B2: Binding nucleic acid molecule 11 (ssDNA)
DNA: TGTGCACTCTCCCGGTATCCCTAATCTCACCCGATACCAAAAAAAAAAAAAAAAAAAA
modifications: NG7 (modified thymine, formula 1) at all T 3' of the first 15 nt
B3: Binding nucleic acid molecule 5 (ssDNA)
DNA: GGTTTAGCCCTCGACTCCAAATGTGCACTCTCCCGGTATCCCTAATCTCACCCGATACCGTTGATGTGCTGCCAATACAAAAAAAAAAAAAAAAAAAA
modifications: NG7 (modified thymine, formula 1) at underlined T, i.e. T residues 3' of the first 23 nt (underlining of some T differs between printings)
B4: Binding nucleic acid molecule 7 (ssDNA)
DNA: B3 DNA with A27T, C28G, T29A, C30T, T31A, C33T
modifications: NG7 (modified thymine, formula 1) at all T 3' of the first 23 nt
B5: Binding nucleic acid molecule 13 (ssDNA)
DNA: GCTGATACTCGGTATCCCTAATCTCACCCGATACCGAAAAAAAAAAAAAAAAAAAA
modifications: NG7 (modified thymine, formula 1) at all T 3' of the first 12 nt
B6: Binding nucleic acid molecule 1, 5'-biotin (ELAA) (ssDNA)
DNA: GGTATGTCTCCGCCACTGAAATCCGTGCCTAATCTCACCCCACGGAATTCATGGCAAAGCCGAGGTGTCTTGTATTC
modifications: NG7 (modified thymine, formula 1) at underlined T, i.e. T residues 3' of the first 23 nt
B7: Binding nucleic acid molecule 8 (ssDNA)
DNA: CCACTGAAATCCGTGCCTAATCTCACCCCACGGAATTCATGGAAAAAAAAAAAAAAAAAAAA
modifications: NG7 (modified thymine, formula 1) at all T 3' of the first 11 nt
B8: Binding nucleic acid molecule 2 (ssDNA)
DNA: GGTATGTCTCCGCCACTGAAATCTAATCTCACATTGTAAGCAAAGGAGAATAAGCAAAGCCGAGGTGTCTTGTATTCAAAAAAAAAAAAAAAAAAAA
modifications: NG7 (modified thymine, formula 1) at all T 3' of the first 23 nt
B9: Control nucleic acid molecule (Song et al. 2020 aptamer) (ssDNA)
DNA: CAGCACCGACCTTGTGCTTTGGGAGTGCTGGTCCAAGGGCGTTAATGGACAAAAAAAAAAAAAAAAAAAAA
B10: Binding nucleic acid molecule 9 (ssDNA)
DNA: TCCGCCACTGAAATCTAATCTCACATTGTAAGCAAAGGAGAATAAAAAAAAAAAAAAAAAAAAAA
modifications: NG7 (modified thymine, formula 1) at all T 3' of the first 15 nt
B11: Binding nucleic acid molecule 12 (ssDNA)
DNA: TGACATGAGCCAGGTGCATCTTGAACGTCATAGATACCGTTGATGTGCTGAAAAAAAAAAAAAAAAAAAA
modifications: NG7 (modified thymine, formula 1) at all T 3' of the first 14 nt
B12: Binding nucleic acid molecule 6 (ssDNA)
DNA: GGTTTAGCCCTCGACTCCAAATGACATGAGCCAGGTGCATCTTGAACGTCATAGATACCGTTGATGTGCTGCCAATACAAAAAAAAAAAAAAAAAAAA
modifications: NG7 (modified thymine, formula 1) at all T 3' of the first 23 nt
B13: Binding nucleic acid molecule 4 (ssDNA)
DNA: GGTATGTCTCCGCCACTGAAATCTTGTCCCCTAATAGGTTCCGACTGACAAGTGCAAAGCCGAGGTGTCTTGTATTCAAAAAAAAAAAAAAAAAAAA
modifications: NG7 (modified thymine, formula 1) at all T 3' of the first 23 nt
B14: Binding nucleic acid molecule 3 (ssDNA)
DNA: GGTATGTCTCCGCCACTGAAATCCCTGACCGCTGACCAAATCTCAGTGCAGATGCAAAGCCGAGGTGTCTTGTATTCAAAAAAAAAAAAAAAAAAAA
modifications: NG7 (modified thymine, formula 1) at all T 3' of the first 23 nt

The binders below were run against T1, SARS-CoV-2 spike glycoprotein RBD domain (SARS-CoV-2, UniProt P0DTC2 SEQ:1-223) (assay: SPR). Conditions: not given.

Binder | Kd
B1 | 1.2 nM
B2 | < 0.1 nM
B3 | < 0.1 nM
B4 | < 0.1 nM
B5 | < 0.1 nM

Each binder was assayed against T1, SARS-CoV-2 spike glycoprotein RBD domain (assay: ELONA). Conditions: not given.

Binder | binding result
CCACTGAAATCCGTGCCTAATCTCACCCCACGGAATTCATGG (ssDNA, NG7 (modified thymine, formula 1) at all T 3' of the first 11 nt) [Binding nucleic acid molecule 8, 5'-biotin (ELAA)] | binds
B6 | binds

The binders below were run against T1, SARS-CoV-2 spike glycoprotein RBD domain (assay: SPR; SB1T, no dextran, 25 C). Conditions: not given.

Binder | Kd
B7 | 2 nM
B8 | 1.7 nM
B9 | 65000 nM
B10 | 2.1 nM
B11 | 2.4 nM
B12 | 3.1 nM

The binders below were run against BSA (bovine serum albumin) (UniProt P02769 P02769:25-607) (assay: SPR; signal approximately 0). Conditions: tags: Sigma A7906.
BSA (bovine serum albumin), sequence (P02769 25-607, one chain of several): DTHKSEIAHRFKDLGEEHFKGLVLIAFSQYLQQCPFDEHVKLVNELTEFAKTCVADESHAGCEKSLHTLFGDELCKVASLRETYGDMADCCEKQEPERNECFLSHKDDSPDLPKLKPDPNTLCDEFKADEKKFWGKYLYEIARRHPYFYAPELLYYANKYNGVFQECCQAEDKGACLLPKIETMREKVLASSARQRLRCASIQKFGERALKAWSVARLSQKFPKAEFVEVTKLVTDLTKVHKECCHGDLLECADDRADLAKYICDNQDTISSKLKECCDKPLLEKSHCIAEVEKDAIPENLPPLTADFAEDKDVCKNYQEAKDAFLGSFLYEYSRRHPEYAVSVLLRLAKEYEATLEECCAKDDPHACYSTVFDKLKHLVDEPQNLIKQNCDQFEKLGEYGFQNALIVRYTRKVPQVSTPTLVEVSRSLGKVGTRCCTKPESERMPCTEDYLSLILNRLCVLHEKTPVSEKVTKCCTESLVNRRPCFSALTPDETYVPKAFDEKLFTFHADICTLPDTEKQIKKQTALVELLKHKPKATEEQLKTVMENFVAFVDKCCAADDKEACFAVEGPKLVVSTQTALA

Binder | binding result
B13 | no binding
B1 | no binding
B8 | no binding
B3 | no binding
B4 | no binding
B14 | no binding
B12 | no binding

The binders below were run against SARS-CoV-2 spike glycoprotein S1+S2 domain (ECD) (SARS-CoV-2, UniProt P0DTC2 SEQ:2-1201) (assay: SPR; 400 nM protein, SB1T, 25 C). Conditions: tags: His; Sino Biological 40589-V08B1.

Binder | binding result
B13 | binds
B14 | binds

What follows are binders tested against SARS-CoV-2 spike glycoprotein S1 domain (SARS-CoV-2, UniProt P0DTC2 SEQ:2-673) (assay: SPR; 400 nM protein, SB1T, 25 C). Conditions: tags: Elabscience PKSR030481.

Binder | binding result
B13 | binds
B14 | binds

Each binder was assayed against T1, SARS-CoV-2 spike glycoprotein RBD domain (assay: SPR; SB1T + 0.1 mM dextran, 25 C). Conditions: not given.

Binder | Kd
B1 | 3.2 nM
B2 | 16.6 nM
B7 | 5.3 nM
B8 | 3.5 nM
B3 | 2.8 nM
B4 | 5.5 nM
B5 | 12 nM
B10 | 20.8 nM
B11 | 7.4 nM
B12 | 6.7 nM
